Measured values published in IntAct's records for PubMed 11283256.

B1: Serine/threonine-protein kinase MRCK alpha (Homo sapiens), Q5VT25 (parent)
chain: MSGEVRLRQLEQFILDGPAQTNGQCFSVETLLDILICLYDECNNSPLRREKNILEYLEWAKPFTSKVKQMRLHREDFEILKVIGRGAFGEVAVVKLKNADKVFAMKILNKWEMLKRAETACFREERDVLVNGDNKWITTLHYAFQDDNNLYLVMDYYVGGDLLTLLSKFEDRLPEDMARFYLAEMVIAIDSVHQLHYVHRDIKPDNILMDMNGHIRLADFGSCLKLMEDGTVQSSVAVGTPDYISPEILQAMEDGKGRYGPECDWWSLGVCMYEMLYGETPFYAESLVETYGKIMNHKERFQFPAQVTDVSENAKDLIRRLICSREHRLGQNGIEDFKKHPFFSGIDWDNIRNCEAPYIPEVSSPTDTSNFDVDDDCLKNSETMPPPTHTAFSGHHLPFVGFTYTSSCVLSDRSCLRVTAGPTSLDLDVNVQRTLDNNLATEAYERRIKRLEQEKLELSRKLQESTQTVQALQYSTVDGPLTASKDLEIKNLKEEIEKLRKQVTESSHLEQQLEEANAVRQELDDAFRQIKAYEKQIKTLQQEREDLNKELVQASERLKNQSKELKDAHCQRKLAMQEFMEINERLTELHTQKQKLARHVRDKEEEVDLVMQKVESLRQELRRTERAKKELEVHTEALAAEASKDRKLREQSEHYSKQLENELEGLKQKQISYSPGVCSIEHQQEITKLKTDLEKKSIFYEEELSKREGIHANEIKNLKKELHDSEGQQLALNKEIMILKDKLEKTRRESQSEREEFESEFKQQYEREKVLLTEENKKLTSELDKLTTLYENLSIHNQQLEEEVKDLADKKESVAHWEAQITEIIQWVSDEKDARGYLQALASKMTEELEALRNSSLGTRATDMPWKMRRFAKLDMSARLELQSALDAEIRAKQAIQEELNKVKASNIITECKLKDSEKKNLELLSEIEQLIKDTEELRSEKGIEHQDSQHSFLAFLNTPTDALDQFERSPSCTPASKGRRTVDSTPLSVHTPTLRKKGCPGSTGFPPKRKTHQFFVKSFTTPTKCHQCTSLMVGLIRQGCSCEVCGFSCHITCVNKAPTTCPVPPEQTKGPLGIDPQKGIGTAYEGHVRIPKPAGVKKGWQRALAIVCDFKLFLYDIAEGKASQPSVVISQVIDMRDEEFSVSSVLASDVIHASRKDIPCIFRVTASQLSASNNKCSILMLADTENEKNKWVGVLSELHKILKKNKFRDRSVYVPKEAYDSTLPLIKTTQAAAIIDHERIALGNEEGLFVVHVTKDEIIRVGDNKKIHQIELIPNDQLVAVISGRNRHVRLFPMSALDGRETDFYKLSETKGCQTVTSGKVRHGALTCLCVAMKRQVLCYELFQSKTRHRKFKEIQVPYNVQWMAIFSEQLCVGFQSGFLRYPLNGEGNPYSMLHSNDHTLSFIAHQPMDAICAVEISSKEYLLCFNSIGIYTDCQGRRSRQQELMWPANPSSCCYNAPYLSVYSENAVDIFDVNSMEWIQTLPLKKVRPLNNEGSLNLLGLETIRLIYFKNKMAEGDELVVPETSDNSRKQMVRNINNKRRYSFRVPEEERMQQRREMLRDPEMRNKLISNPTNFNHIAHMGPGDGIQILKDLPMNPRPQESRTVFSGSVSIPSITKSRPEPGRSMSASSGLSARSSAQNGSALKREFSGGSYSAKRQPMPSPSEGSLSSGGMDQGSDAPARDFDGEDSDSPRHSTASNSSNLSSPPSPASPRKTKSLSLESTDRGSWDP
partner: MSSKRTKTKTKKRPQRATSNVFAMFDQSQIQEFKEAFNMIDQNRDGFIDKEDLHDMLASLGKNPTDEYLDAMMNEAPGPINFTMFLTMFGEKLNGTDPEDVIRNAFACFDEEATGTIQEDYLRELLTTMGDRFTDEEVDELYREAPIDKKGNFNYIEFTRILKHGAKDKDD

Variants of: B1
Conditions: with ml12a_human MYL12A

Effect of a mutation on the interaction, decreasing interaction:
S234A
T240A
K106A
T403A
